US20210087281A1 (AGOMAB THERAPEUTICS, published 2021)

Tests used:
[1] = target: T1, native human MET on living cells (human, UniProt P08581 25-1390); assay: cell-based or functional assay
[2] = target: T2, native mouse MET on living cells (mouse, UniProt P16056 25-1379); assay: cell-based or functional assay
[3] = target: T1, native human MET on living cells; assay: cell-based or functional assay; remark: listed apart in the source
[4] = target: T2, native mouse MET on living cells; assay: cell-based or functional assay; remark: listed apart in the source
[5] = target: T1, native human MET on living cells; assay: flow cytometry, A549 cells
Method in brief: (§1)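 Chimeric anti-MET antibodies were incubated with living cells expressing native MET, human on A549 and mouse on MLP29. Binding was detected by flow cytometry with phycoerythrin-conjugated anti-human IgG1. Commercial anti-MET antibodies with matching PE secondaries served as positive controls.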

human MET ECD [6] = target: T3, human MET ECD (human, UniProt P08581 25-932); assay: ELISA, MET ECD in solid phase, mAb 0-50 nM
T3 construct: range 1-932; recombinant ECD made by the applicants; the stated range begins at residue 1, so it includes the signal peptide of the entry; also called hMET; hMET ECD
T3 sequence (P08581 25-932 limits assumed, form in doubt): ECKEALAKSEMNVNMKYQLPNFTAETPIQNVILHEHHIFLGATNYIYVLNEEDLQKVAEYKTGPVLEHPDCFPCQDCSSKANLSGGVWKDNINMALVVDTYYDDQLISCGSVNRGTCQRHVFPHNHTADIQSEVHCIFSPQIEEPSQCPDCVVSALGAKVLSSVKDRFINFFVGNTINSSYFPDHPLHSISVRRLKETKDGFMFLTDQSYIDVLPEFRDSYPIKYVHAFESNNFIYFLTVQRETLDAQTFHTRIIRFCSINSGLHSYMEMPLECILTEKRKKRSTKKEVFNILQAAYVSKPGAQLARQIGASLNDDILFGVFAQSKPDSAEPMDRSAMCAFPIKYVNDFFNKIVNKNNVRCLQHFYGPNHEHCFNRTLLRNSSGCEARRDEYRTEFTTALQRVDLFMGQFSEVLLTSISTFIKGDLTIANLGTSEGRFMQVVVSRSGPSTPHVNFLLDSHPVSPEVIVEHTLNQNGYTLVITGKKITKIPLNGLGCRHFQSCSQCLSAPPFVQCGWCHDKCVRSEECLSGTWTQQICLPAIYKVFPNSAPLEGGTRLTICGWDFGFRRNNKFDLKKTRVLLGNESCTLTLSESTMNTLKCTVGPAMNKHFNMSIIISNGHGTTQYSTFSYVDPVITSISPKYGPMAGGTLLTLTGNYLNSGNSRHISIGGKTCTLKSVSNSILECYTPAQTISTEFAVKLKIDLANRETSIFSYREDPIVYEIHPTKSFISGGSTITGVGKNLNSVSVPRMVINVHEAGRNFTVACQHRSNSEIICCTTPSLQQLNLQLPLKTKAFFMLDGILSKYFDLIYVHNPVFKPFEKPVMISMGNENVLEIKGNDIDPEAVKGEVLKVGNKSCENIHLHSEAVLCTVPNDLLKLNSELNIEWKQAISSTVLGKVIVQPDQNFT
Procedure: Using human MET as a template, we mutagenized each of these residues in different permutations, generating a series of MET mutants that are fully human except for specific residues, which are llama. Next, we tested the affinity of selected SEMA-binding mAbs (71D6, 71C3, 71D4, 71A3, 71G2) and PSI-binding mAbs (76H10 and 71G3) for these MET mutants by ELISA. To this end, the various MET proteins were immobilized in solid phase (100 ng/well in a 96-well plate) and then exposed to increasing concentrations of antibodies (0-50 nM) solution. […] Wild-type human MET was used as positive control.
TABLE 18 The epitopes of MET responsible for agonistic antibody binding represent residues conserved among H. sapiens, M. musculus, R. norvegicus, M. fascicularis but not among the same species and L. glama. The relevance of residues conserved among human, mouse, rat, cynomolgus monkey but not llama MET for binding to agonistic mAbs was tested by ELISA. Wild-type (WT) or mutant (MT) human MET ECD was immobilized in solid phase and exposed to increasing concentrations of mAbs in solution. […] All binding values were normalized to the WT protein and are expressed as % binding (EMAX) compared to WT MET.

mouse MET ECD = target: T4, mouse MET ECD (mouse, UniProt P16056 25-931); assay: ELISA, MET ECD in solid phase, mAb 0-20 nM
T4 construct: range 1-931; recombinant ECD made by the applicants; the stated range begins at residue 1; also called mMET; mMET ECD
Method in brief: (§2)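 Chimeric llama-human IgG1 antibodies were expressed by transient transfection of mammalian cells and purified by protein A affinity chromatography. Their binding was then measured by ELISA against immobilized MET ECD, with antibody titrated in solution.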

human MET ECD [7] = target: T3, human MET ECD; assay: ELISA, MET ECD in solid phase, mAb 0-20 nM
Method in brief: as §2

[8] = target: T1, native human MET on living cells; assay: cell-based or functional assay; remark: listed apart in the source
[9] = target: T2, native mouse MET on living cells; assay: cell-based or functional assay; remark: listed apart in the source
[10] = target: human MET ECD mutant A (mutations 1, 2, 3) (human) (UniProt P08581); assay: ELISA, MET ECD in solid phase, mAb 0-50 nM
[11] = target: human MET ECD mutant H (mutations 2, 4) (human) (UniProt P08581); assay: ELISA, MET ECD in solid phase, mAb 0-50 nM
[12] = target: human MET ECD mutant E (mutations 2, 3, 4) (human) (UniProt P08581); assay: ELISA, MET ECD in solid phase, mAb 0-50 nM
[13] = target: human MET ECD mutant D (mutations 1, 2) (human) (UniProt P08581); assay: ELISA, MET ECD in solid phase, mAb 0-50 nM
[14] = target: T5, human MET-Fc (R&D Systems) (human, UniProt P08581 25-932); assay: competition ELISA, hMET-Fc in solid phase, competitor 0.3 nM biotinylated hHGF
T5 construct: extracellular domain; bought chimeric protein; also called hMET; not shown: Fc portion of human IgG1
T5 sequence (P08581 25-932): as the sequence (P08581 25-932 limits assumed, form in doubt) above
Method in brief: (§3)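 N-terminally biotinylated HGF (NHS-LC-biotin); mAbs titrated 0-120 nM against coated MET-Fc; read-out IC₅₀ (50% competition) and IMAX (max % competition at saturation).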

[15] = target: T1, native human MET on living cells; assay: cell-based or functional assay; remark: listed apart in the source
[16] = target: T2, native mouse MET on living cells; assay: cell-based or functional assay; remark: listed apart in the source
[17] = target: T2, native mouse MET on living cells; assay: flow cytometry, MLP29 cells
Method in brief: as §1

[18] = target: T6, mouse MET-Fc (R&D Systems) (mouse, UniProt P16056 25-929, limits assumed); assay: competition ELISA, mMET-Fc in solid phase, competitor 0.3 nM biotinylated mHGF
T6 construct: bought chimeric protein; also called mMET; not shown: Fc part
Method in brief: as §3

T1 sequence (P08581 25-1390): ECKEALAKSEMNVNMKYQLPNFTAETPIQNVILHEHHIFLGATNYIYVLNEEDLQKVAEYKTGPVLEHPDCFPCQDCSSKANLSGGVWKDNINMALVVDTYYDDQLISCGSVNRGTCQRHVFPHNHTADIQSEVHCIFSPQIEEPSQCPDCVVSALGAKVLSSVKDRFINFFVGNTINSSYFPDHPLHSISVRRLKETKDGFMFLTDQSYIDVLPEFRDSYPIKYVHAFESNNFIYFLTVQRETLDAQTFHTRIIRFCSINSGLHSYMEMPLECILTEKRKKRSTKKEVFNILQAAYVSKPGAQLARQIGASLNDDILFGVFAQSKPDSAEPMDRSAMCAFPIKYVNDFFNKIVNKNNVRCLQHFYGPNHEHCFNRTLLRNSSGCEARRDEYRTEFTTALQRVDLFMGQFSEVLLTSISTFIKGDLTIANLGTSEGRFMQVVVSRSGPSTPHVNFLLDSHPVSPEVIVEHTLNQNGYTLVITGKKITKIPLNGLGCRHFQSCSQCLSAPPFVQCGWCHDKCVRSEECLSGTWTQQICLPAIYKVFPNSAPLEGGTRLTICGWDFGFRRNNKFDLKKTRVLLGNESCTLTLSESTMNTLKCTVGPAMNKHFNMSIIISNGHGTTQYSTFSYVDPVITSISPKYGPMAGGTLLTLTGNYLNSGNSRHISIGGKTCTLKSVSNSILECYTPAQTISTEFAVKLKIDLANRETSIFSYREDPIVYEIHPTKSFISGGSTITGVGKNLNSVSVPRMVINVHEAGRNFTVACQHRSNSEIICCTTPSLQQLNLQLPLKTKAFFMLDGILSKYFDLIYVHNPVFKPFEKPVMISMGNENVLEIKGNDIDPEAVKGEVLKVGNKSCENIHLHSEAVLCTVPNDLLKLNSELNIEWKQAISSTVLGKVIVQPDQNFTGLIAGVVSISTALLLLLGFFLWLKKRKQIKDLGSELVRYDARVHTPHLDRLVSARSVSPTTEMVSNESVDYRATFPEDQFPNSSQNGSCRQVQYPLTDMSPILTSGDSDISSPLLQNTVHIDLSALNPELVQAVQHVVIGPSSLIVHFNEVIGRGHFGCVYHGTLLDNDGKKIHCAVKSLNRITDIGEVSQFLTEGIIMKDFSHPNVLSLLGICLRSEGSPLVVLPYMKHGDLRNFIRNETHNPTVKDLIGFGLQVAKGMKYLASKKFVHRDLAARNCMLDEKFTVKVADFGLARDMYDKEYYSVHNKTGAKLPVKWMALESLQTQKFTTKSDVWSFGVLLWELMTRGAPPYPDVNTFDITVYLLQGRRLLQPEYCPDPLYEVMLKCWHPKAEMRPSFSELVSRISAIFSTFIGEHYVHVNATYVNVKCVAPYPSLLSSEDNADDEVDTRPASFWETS

B1: 71D4 chimeric llama-human IgG1 mAb (antibody, V domains shown)
VH: ELQLVESGGGLVQPGGSLRLSCAASGFTFSGYGMSWVRQAPGKGLEWVSDINSGGGSTSYADSVKGRFTISRDNAKNTLYLQMNSLKPEDTAVYYCAKDMRLYLARYNDYEAWDYWGQGTQVTVSS
VL: SSALTQPSALSVTLGQTAKITCQGGSLGSSYAHWYQQKPGQAPVLVIYDDDSRPSGIPERFSGSSSGGTATLTISGAQAEDEGDYYCQSADSSGNAAVFGGGTHLTVL
notes: llama VH on human IgG1 CH1-CH2-CH3, llama VL on human lambda CL
In the case of B1, the “protection from staurosporine, viability EC50, MCF10A cells” value [1] is reported as 30.2 nM, the “protection from staurosporine, viability EMAX, MCF10A cells” value [1] is reported as 51.7% and the “protection from staurosporine, viability EC50, MLP29 cells” value [2] is reported as 29.8 nM. For the same binder, the “protection from staurosporine, viability EMAX, MLP29 cells” value [2] was 52.1%, the “scatter score 0-4, HPAF-II, 0.001 nM” value [3] was 0 score and the “scatter score 0-4, HPAF-II, 0.004 nM” value [3] was 0 score. The “scatter score 0-4, HPAF-II, 0.012 nM” value [3] was 0 score, the “scatter score 0-4, HPAF-II, 0.037 nM” value [3] was 0 score and the “scatter score 0-4, HPAF-II, 0.111 nM” value [3] was 0 score. For the same binder, the “scatter score 0-4, HPAF-II, 0.333 nM” value [3] was 0 score, the “scatter score 0-4, HPAF-II, 1.000 nM” value [3] was 1 score and the “scatter score 0-4, HPAF-II, 3.000 nM” value [3] was 2 score. For the same binder, the “scatter score 0-4, HPAF-II, 9.000 nM” value [3] was 2 score, the “scatter score 0-4, MLP29, 0.001 nM” value [4] was 0 score and the “scatter score 0-4, MLP29, 0.004 nM” value [4] was 0 score. For the same binder, the “scatter score 0-4, MLP29, 0.012 nM” value [4] was 0 score, the “scatter score 0-4, MLP29, 0.037 nM” value [4] was 0 score and the “scatter score 0-4, MLP29, 0.111 nM” value [4] was 0 score. For the same binder, the “scatter score 0-4, MLP29, 0.333 nM” value [4] was 0 score, the “scatter score 0-4, MLP29, 1.000 nM” value [4] was 1 score and the “scatter score 0-4, MLP29, 3.000 nM” value [4] was 2 score. For the same binder, the “scatter score 0-4, MLP29, 9.000 nM” value [4] was 2 score, the EC50 [5] was 0.371 nM and the EMAX [5] was 107 % relative to control. The “% binding (EMAX) compared to WT MET” value (human MET ECD [6]) was 100 % WT MET ECD, the EC50 (mouse MET ECD) was 0.274 nM and the “EMAX (OD450)” value (mouse MET ECD) was 1.17 AU. For the same binder, the EC50 (human MET ECD [7]) was 0.207 nM, the “EMAX (OD450)” value (human MET ECD [7]) was 1.43 AU and the “branches per spheroid, LOC cells, 0.5 nM” value [8] was 9 branches. The “branches per spheroid, LOC cells, 2.5 nM” value [8] was 15.7 branches, the “branches per spheroid, LOC cells, 12.5 nM” value [8] was 18.7 branches and the “branches per spheroid, MLP29 cells, 0.5 nM” value [9] was 16 branches. The “branches per spheroid, MLP29 cells, 2.5 nM” value [9] was 14.7 branches, the “branches per spheroid, MLP29 cells, 12.5 nM” value [9] was 21.7 branches and the % binding (EMAX) compared to WT MET [10] was 114 % WT MET ECD. The % binding (EMAX) compared to WT MET [11] was 58.7 % WT MET ECD, the % binding (EMAX) compared to WT MET [12] was 57.2 % WT MET ECD and the % binding (EMAX) compared to WT MET [13] was 120 % WT MET ECD. For the same binder, the IC50 [14] was 0.34 nM, the IMAX [14] was 95.6% and the “phospho-MET ELISA EC50, A549 cells” value [15] was 0.59 nM. The “phospho-MET ELISA EMAX (% HGF activity), A549 cells” value [15] was 84.6%, the “phospho-MET ELISA EC50, MLP29 cells” value [16] was 0.51 nM and the “phospho-MET ELISA EMAX (% HGF activity), MLP29 cells” value [16] was 95.3%. The EC50 [17] was 0.498 nM, the EMAX [17] was 94.8 % relative to control and the IC50 [18] was 0.4 nM. It also gave an IMAX [18] of 91.3%.

B2: 71A3 chimeric llama-human IgG1 mAb (antibody, V domains shown)
VH: EVQLVESGGGLVQPGGSLRLSCAASGFSFKDYDITWVRQAPGKGLEWVSTITSRSGSTSYVDSVKGRFTISGDNAKNTLYLQMNSLKPEDTAVYYCAKVYATTWDVGPLGYGMDYWGKGTLVTVSS
VL: SYELTQPSALSVTLGQTAKITCQGGSLGSSYAHWYQQKPGQAPVLVIYDDDSRPSGIPERFSGSSSGGTATLTISGAQAEDEGDYYCQSADSSGNAAVFGGGTHLTVL
notes: as for B1
In the case of B2, the “protection from staurosporine, viability EC50, MCF10A cells” value [1] is reported as less than 0.5 nM, the “protection from staurosporine, viability EMAX, MCF10A cells” value [1] is reported as 71.7% and the “protection from staurosporine, viability EC50, MLP29 cells” value [2] is reported as less than 0.5 nM. The “protection from staurosporine, viability EMAX, MLP29 cells” value [2] was 70.5%, the “scatter score 0-4, HPAF-II, 0.001 nM” value [3] was 0 score and the “scatter score 0-4, HPAF-II, 0.004 nM” value [3] was 0 score. The “scatter score 0-4, HPAF-II, 0.012 nM” value [3] was 2 score, the “scatter score 0-4, HPAF-II, 0.037 nM” value [3] was 3 score and the “scatter score 0-4, HPAF-II, 0.111 nM” value [3] was 3 score. For the same binder, the “scatter score 0-4, HPAF-II, 0.333 nM” value [3] was 4 score, the “scatter score 0-4, HPAF-II, 1.000 nM” value [3] was 4 score and the “scatter score 0-4, HPAF-II, 3.000 nM” value [3] was 4 score. The “scatter score 0-4, HPAF-II, 9.000 nM” value [3] was 4 score, the “scatter score 0-4, MLP29, 0.001 nM” value [4] was 0 score and the “scatter score 0-4, MLP29, 0.004 nM” value [4] was 0 score. For the same binder, the “scatter score 0-4, MLP29, 0.012 nM” value [4] was 2 score, the “scatter score 0-4, MLP29, 0.037 nM” value [4] was 3 score and the “scatter score 0-4, MLP29, 0.111 nM” value [4] was 3 score. The “scatter score 0-4, MLP29, 0.333 nM” value [4] was 4 score, the “scatter score 0-4, MLP29, 1.000 nM” value [4] was 4 score and the “scatter score 0-4, MLP29, 3.000 nM” value [4] was 4 score. For the same binder, the “scatter score 0-4, MLP29, 9.000 nM” value [4] was 4 score, the EC50 [5] was 0.514 nM and the EMAX [5] was 161 % relative to control. For the same binder, the “% binding (EMAX) compared to WT MET” value (human MET ECD [6]) was 100 % WT MET ECD, the EC50 (mouse MET ECD) was 0.176 nM and the “EMAX (OD450)” value (mouse MET ECD) was 2.73 AU. The EC50 (human MET ECD [7]) was 0.229 nM, the “EMAX (OD450)” value (human MET ECD [7]) was 2.4 AU and the “branches per spheroid, LOC cells, 0.5 nM” value [8] was 24 branches. The “branches per spheroid, LOC cells, 2.5 nM” value [8] was 30.3 branches, the “branches per spheroid, LOC cells, 12.5 nM” value [8] was 31.3 branches and the “branches per spheroid, MLP29 cells, 0.5 nM” value [9] was 30.3 branches. The “branches per spheroid, MLP29 cells, 2.5 nM” value [9] was 42 branches, the “branches per spheroid, MLP29 cells, 12.5 nM” value [9] was 42.7 branches and the % binding (EMAX) compared to WT MET [10] was 117 % WT MET ECD. It also gave a % binding (EMAX) compared to WT MET [11] of 76.7 % WT MET ECD, a % binding (EMAX) compared to WT MET [12] of 65.4 % WT MET ECD and a % binding (EMAX) compared to WT MET [13] of 128 % WT MET ECD. For the same binder, the IC50 [14] was 0.51 nM, the IMAX [14] was 93.4% and the “phospho-MET ELISA EC50, A549 cells” value [15] was 0.31 nM. The “phospho-MET ELISA EMAX (% HGF activity), A549 cells” value [15] was 86.6%, the “phospho-MET ELISA EC50, MLP29 cells” value [16] was 0.26 nM and the “phospho-MET ELISA EMAX (% HGF activity), MLP29 cells” value [16] was 96%. For the same binder, the EC50 [17] was 0.811 nM, the EMAX [17] was 144 % relative to control and the IC50 [18] was 0.54 nM. It also gave an IMAX [18] of 87.7%.
